Biological target: Fig4-C486S-Citrine (human) (human) (UniProt Q92562)
Assay: co-IP

UniProt Q92562, sequence (Q92562 whole entry C486S): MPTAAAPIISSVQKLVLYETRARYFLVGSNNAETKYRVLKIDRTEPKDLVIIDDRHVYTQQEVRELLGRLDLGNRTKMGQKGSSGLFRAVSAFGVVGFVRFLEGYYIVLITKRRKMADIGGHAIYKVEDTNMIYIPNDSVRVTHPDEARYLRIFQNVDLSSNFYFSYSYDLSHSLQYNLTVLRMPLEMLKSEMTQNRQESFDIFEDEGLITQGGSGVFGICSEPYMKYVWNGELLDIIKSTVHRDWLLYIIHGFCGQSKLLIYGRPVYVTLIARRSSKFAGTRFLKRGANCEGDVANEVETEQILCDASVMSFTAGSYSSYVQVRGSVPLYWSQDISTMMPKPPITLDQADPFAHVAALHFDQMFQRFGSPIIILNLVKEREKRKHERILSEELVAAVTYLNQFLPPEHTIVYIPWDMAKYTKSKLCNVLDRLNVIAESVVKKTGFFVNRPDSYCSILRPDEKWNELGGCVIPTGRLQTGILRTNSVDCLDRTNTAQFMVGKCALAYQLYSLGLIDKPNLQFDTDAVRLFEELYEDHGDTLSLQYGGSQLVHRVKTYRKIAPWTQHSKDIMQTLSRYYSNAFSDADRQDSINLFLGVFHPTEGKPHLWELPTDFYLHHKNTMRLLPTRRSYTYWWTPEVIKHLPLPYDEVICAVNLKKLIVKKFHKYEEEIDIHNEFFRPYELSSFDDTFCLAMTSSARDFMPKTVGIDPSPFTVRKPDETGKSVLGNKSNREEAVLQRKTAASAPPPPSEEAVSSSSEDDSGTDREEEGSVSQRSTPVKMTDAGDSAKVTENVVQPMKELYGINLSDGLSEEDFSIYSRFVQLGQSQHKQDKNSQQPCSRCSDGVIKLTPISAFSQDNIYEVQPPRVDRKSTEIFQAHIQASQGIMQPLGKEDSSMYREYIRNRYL

fold PIKfyve association over wild-type Fig4: 9.27 fold
Substance: PIKfyve, Q9Y2I7 1-2098

— article PMC7525815
